The results in this text go back to IntAct's records for PubMed 31515488.

The labels stand for the following.
B1: Peroxisomal bifunctional enzyme (Homo sapiens), Q08426 (parent)
chain: MAEYTRLHNALALIRLRNPPVNAISTTLLRDIKEGLQKAVIDHTIKAIVICGAEGKFSAGADIRGFSAPRTFGLTLGHVVDEIQRNEKPVVAAIQGMAFGGGLELALGCHYRIAHAEAQVGLPEVTLGLLPGARGTQLLPRLTGVPAALDLITSGRRILADEALKLGILDKVVNSDPVEEAIRFAQRVSDQPLESRRLCNKPIQSLPNMDSIFSEALLKMRRQHPGCLAQEACVRAVQAAVQYPYEVGIKKEEELFLYLLQSGQARALQYAFFAERKANKWSTPSGASWKTASARPVSSVGVVGLGTMGRGIVISFARARIPVIAVDSDKNQLATANKMITSVLEKEASKMQQSGHPWSGPKPRLTSSVKELGGVDLVIEAVFEEMSLKKQVFAELSAVCKPEAFLCTNTSALDVDEIASSTDRPHLVIGTHFFSPAHVMKLLEVIPSQYSSPTTIATVMNLSKKIKKIGVVVGNCFGFVGNRMLNPYYNQAYFLLEEGSKPEEVDQVLEEFGFKMGPFRVSDLAGLDVGWKSRKGQGLTGPTLLPGTPARKRGNRRYCPIPDVLCELGRFGQKTGKGWYQYDKPLGRIHKPDPWLSKFLSRYRKTHHIEPRTISQDEILERCLYSLINEAFRILGEGIAASPEHIDVVYLHGYGWPRHKGGPMFYASTVGLPTVLEKLQKYYRQNPDIPQLEPSDYLKKLASQGNPPLKEWQSLAGSPSSKL
partner: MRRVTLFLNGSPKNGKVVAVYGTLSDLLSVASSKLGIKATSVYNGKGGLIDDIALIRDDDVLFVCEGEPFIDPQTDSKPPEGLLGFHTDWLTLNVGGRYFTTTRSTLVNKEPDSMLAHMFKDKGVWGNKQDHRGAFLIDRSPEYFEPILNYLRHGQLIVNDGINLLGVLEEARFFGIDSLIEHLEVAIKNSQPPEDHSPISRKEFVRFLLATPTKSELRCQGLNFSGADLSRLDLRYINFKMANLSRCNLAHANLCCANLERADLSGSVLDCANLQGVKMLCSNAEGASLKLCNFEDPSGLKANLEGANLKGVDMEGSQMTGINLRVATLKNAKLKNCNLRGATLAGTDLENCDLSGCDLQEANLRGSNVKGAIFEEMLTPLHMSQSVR
B2: Glutathione S-transferase A2 (Homo sapiens), P09210 (parent)
chain: MAEKPKLHYSNIRGRMESIRWLLAAAGVEFEEKFIKSAEDLDKLRNDGYLMFQQVPMVEIDGMKLVQTRAILNYIASKYNLYGKDIKEKALIDMYIEGIADLGEMILLLPFSQPEEQDAKLALIQEKTKNRYFPAFEKVLKSHGQDYLVGNKLSRADIHLVELLYYVEELDSSLISSFPLLKALKTRISNLPTVKKFLQPGSPRKPPMDEKSLEESRKIFRF
partner: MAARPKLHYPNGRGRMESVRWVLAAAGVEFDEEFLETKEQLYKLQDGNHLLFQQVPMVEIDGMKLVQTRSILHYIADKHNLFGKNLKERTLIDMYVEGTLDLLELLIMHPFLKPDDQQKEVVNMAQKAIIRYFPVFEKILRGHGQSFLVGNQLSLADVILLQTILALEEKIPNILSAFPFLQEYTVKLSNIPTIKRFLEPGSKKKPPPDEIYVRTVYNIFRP
B3: Keratin, type I cytoskeletal 20 (Homo sapiens), P35900 (parent)
chain: MDFSRRSFHRSLSSSLQAPVVSTVGMQRLGTTPSVYGGAGGRGIRISNSRHTVNYGSDLTGGGDLFVGNEKMAMQNLNDRLASYLEKVRTLEQSNSKLEVQIKQWYETNAPRAGRDYSAYYRQIEELRSQIKDAQLQNARCVLQIDNAKLAAEDFRLKYETERGIRLTVEADLQGLNKVFDDLTLHKTDLEIQIEELNKDLALLKKEHQEEVDGLHKHLGNTVNVEVDAAPGLNLGVIMNEMRQKYEVMAQKNLQEAKEQFERQTAVLQQQVTVNTEELKGTEVQLTELRRTSQSLEIELQSHLSMKESLEHTLEETKARYSSQLANLQSLLSSLEAQLMQIRSNMERQNNEYHILLDIKTRLEQEIATYRRLLEGEDVKTTEYQLSTLEERDIKKTRKIKTVVQEVVDGKVVSSEVKEVEENI
B4: Seipin (Homo sapiens), Q96G97-4 (parent)
chain: MSTEKVDQKEEAGEKEVCGDQIKGPDKEEEPPAAASHGQGWRPGGRAARNARPEPGARHPALPAMVNDPPVPALLWAQEVGQVLAGRARRLLLQFGVLFCTILLLLWVSVFLYGSFYYSYMPTVSHLSPVHFYYRTDCDSSTTSLCSFPVANVSLTKGGRDRVLMYGQPYRVTLELELPESPVNQDLGMFLVTISCYTRGGRIISTSSRSVMLHYRSDLLQMLDTLVFSSLLLFGFAEQKQLLEVELYADYRENSYVPTTGAIIEIHSKRIQLYGAYLRIHAHFTGLRYLLYNFPMTCAFIGVASNFTFLSVIVLFSYMQWVWGGIWPRHRFSLQVNIRKRDNSRKEVQRRISAHQPGPEGQEESTPQSDVTEDGESPEDPSGTEGQLSEEEKPDQQPLSGEEELEPEASDGSGSWEDAALLTEANLPAPAPASASAPVLETLGSSEPAGGALRQRPTCSSS
partner: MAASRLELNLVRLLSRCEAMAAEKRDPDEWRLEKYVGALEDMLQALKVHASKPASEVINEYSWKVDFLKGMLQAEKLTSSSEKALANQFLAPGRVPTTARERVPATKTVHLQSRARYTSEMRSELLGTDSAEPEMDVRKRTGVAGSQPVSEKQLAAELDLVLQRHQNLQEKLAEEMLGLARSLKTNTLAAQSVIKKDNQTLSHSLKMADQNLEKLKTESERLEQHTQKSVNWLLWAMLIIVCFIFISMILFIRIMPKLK

Variants of B1 are the subject of the first experiment. The note with it: with kctd9_human KCTD9, Q7L273.
L715S: the “effect of a mutation on the interaction” value is recorded as “disrupting interaction strength”.

As to I646T, the “effect of a mutation on the interaction” value is “disrupting interaction strength”.

S703F: the “effect of a mutation on the interaction” value was “with no effect”.

For R483Q, the “effect of a mutation on the interaction” value is listed as “disrupting interaction strength”.

Variants of B2 are the subject of a further experiment. As to conditions: with gsta4_human GSTA4, O15217.
On to MAEKPKLHYSNIRGRMESIRWLLAAAGVEFEEKFIKSAEDLDKLRNDGYLMFQQVPMVEIDGMKLVQTRAILNYIASKYNLYGKDIKEKALIDMYIEGIADLGEMILLLPFSQPEEQDAKLALIQEKTKNRYFPAFEKVLKSHGQDYLVGNKLSRADIHLVELLYYVEELDSSLISSFPLLKALKTRISNLPTVKKFLQPGSPRKPPMDAKSLEESRKIFRF [E210A], for which the “effect of a mutation on the interaction” value is given as “with no effect”.

The variants in the next experiment derive from B3. As to conditions: with KRT15, P19012.
Chain of KRT15, P19012 (P19012 whole entry): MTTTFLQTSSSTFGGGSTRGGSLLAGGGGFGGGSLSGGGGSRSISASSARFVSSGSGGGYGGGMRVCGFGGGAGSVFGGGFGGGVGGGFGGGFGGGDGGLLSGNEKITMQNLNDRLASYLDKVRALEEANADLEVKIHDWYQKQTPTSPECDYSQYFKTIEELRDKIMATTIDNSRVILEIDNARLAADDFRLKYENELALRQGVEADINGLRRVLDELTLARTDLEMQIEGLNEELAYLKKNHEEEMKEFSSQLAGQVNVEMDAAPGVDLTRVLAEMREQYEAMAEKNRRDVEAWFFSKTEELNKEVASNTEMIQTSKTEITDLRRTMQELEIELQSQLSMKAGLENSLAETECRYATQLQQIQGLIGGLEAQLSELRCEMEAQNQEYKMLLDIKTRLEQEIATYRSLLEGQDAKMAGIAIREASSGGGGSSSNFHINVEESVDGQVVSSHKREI
As to MDFSRRSFHRSLSSSLQAPVVSTVGMQRLGTTPSVYGGAGGRGIRISNSRHTVNYGSDLTGGGDLFVGNEKMAMQNLNDRLASYLEKVRTLEQSNSKLEVQIKQWYETNAPRAGRDYSAYYRQIEELRNQIKDAQLQNARCVLQIDNAKLAAEDFRLKYETERGIRLTVEADLQGLNKVFDDLTLHKTDLEIQIEELNKDLALLKKEHQEEVDGLHKHLGNTVNVEVDAAPGLNLGVIMNEMRQKYEVMAQKNLQEAKEQFERQTAVLQQQVTVNTEELKGTEVQLTELRRTSQSLEIELQSHLSMKESLEHTLEETKARYSSQLANLQSLLSSLEAQLMQIRSNMERQNNEYHILLDIKTRLEQEIATYRRLLEGEDVKTTEYQLSTLEERDIKKTRKIKTVVQEVVDGKVVSSEVKEVEENI [S129N], the “effect of a mutation on the interaction” value was “with no effect”.

For the variant MDFSRRSFHRSLSSSLQAPVVSTVGMQRLGTTPSVYGGAGGRGIRISNSRHTVNYGSDLTGGGDLFVGNEKMAMQNLNDRLASYLEKVRTLEQSNSKLEVQIKQWYETNAPRAGRDYSAYYRQIEELRSQIKDAQLQNARCVLQIDNAKLAAEDFRLKYETERGIRLTVEADLQGLNKVFDDLTLHKTDLEIQIEELNKDLALLKKEHQEEVDGLHKHLGNTVNVEVDAAPGLNLGVIMNEMRQKYEVMAQKNLQEAKEQFERQTAVLQQQVTVNTEELKGTEVQLTELRRTSQSLEIELQSHLSMKEYLEHTLEETKARYSSQLANLQSLLSSLEAQLMQIRSNMERQNNEYHILLDIKTRLEQEIATYRRLLEGEDVKTTEYQLSTLEERDIKKTRKIKTVVQEVVDGKVVSSEVKEVEENI [S309Y], the “effect of a mutation on the interaction” value was “with no effect”.

The variants in another experiment derive from B3. As to conditions: with vime_human VIM.
On to MDFSRRSFHRSLSSSLQAPVVSTVGMQRLGTTPSVYGGAGGRGIRISNSRHTVNYGSDLTGGGDLFVGNEKMAMQNLNDRLASYLEKVRTLEQSNSKLEVQIKQWYETNAPRAGRDYSAYYRQIEELRNQIKDAQLQNARCVLQIDNAKLAAEDFRLKYETERGIRLTVEADLQGLNKVFDDLTLHKTDLEIQIEELNKDLALLKKEHQEEVDGLHKHLGNTVNVEVDAAPGLNLGVIMNEMRQKYEVMAQKNLQEAKEQFERQTAVLQQQVTVNTEELKGTEVQLTELRRTSQSLEIELQSHLSMKESLEHTLEETKARYSSQLANLQSLLSSLEAQLMQIRSNMERQNNEYHILLDIKTRLEQEIATYRRLLEGEDVKTTEYQLSTLEERDIKKTRKIKTVVQEVVDGKVVSSEVKEVEENI [S129N], for which the “effect of a mutation on the interaction” value is on record as “with no effect”.

MDFSRRSFHRSLSSSLQAPVVSTVGMQRLGTTPSVYGGAGGRGIRISNSRHTVNYGSDLTGGGDLFVGNEKMAMQNLNDRLASYLEKVRTLEQSNSKLEVQIKQWYETNAPRAGRDYSAYYRQIEELRSQIKDAQLQNARCVLQIDNAKLAAEDFRLKYETERGIRLTVEADLQGLNKVFDDLTLHKTDLEIQIEELNKDLALLKKEHQEEVDGLHKHLGNTVNVEVDAAPGLNLGVIMNEMRQKYEVMAQKNLQEAKEQFERQTAVLQQQVTVNTEELKGTEVQLTELRRTSQSLEIELQSHLSMKEYLEHTLEETKARYSSQLANLQSLLSSLEAQLMQIRSNMERQNNEYHILLDIKTRLEQEIATYRRLLEGEDVKTTEYQLSTLEERDIKKTRKIKTVVQEVVDGKVVSSEVKEVEENI [S309Y]: the “effect of a mutation on the interaction” value is given as “with no effect”.

A further experiment covers variants of B4. The note with it: with use1_human USE1, Q9NZ43.
In the case of MSTEKVDQKEEAGEKEVCGEQIKGPDKEEEPPAAASHGQGWRPGGRAARNARPEPGARHPALPAMVNDPPVPALLWAQEVGQVLAGRARRLLLQFGVLFCTILLLLWVSVFLYGSFYYSYMPTVSHLSPVHFYYRTDCDSSTTSLCSFPVANVSLTKGGRDRVLMYGQPYRVTLELELPESPVNQDLGMFLVTISCYTRGGRIISTSSRSVMLHYRSDLLQMLDTLVFSSLLLFGFAEQKQLLEVELYADYRENSYVPTTGAIIEIHSKRIQLYGAYLRIHAHFTGLRYLLYNFPMTCAFIGVASNFTFLSVIVLFSYMQWVWGGIWPRHRFSLQVNIRKRDNSRKEVQRRISAHQPGPEGQEESTPQSDVTEDGESPEDPSGTEGQLSEEEKPDQQPLSGEEELEPEASDGSGSWEDAALLTEANLPAPAPASASAPVLETLGSSEPAGGALRQRPTCSSS [D20E], the “effect of a mutation on the interaction” value is recorded as “with no effect”.
